Laboratory results from article PMC7954794 (2021).

B1: S. cerevisiae Abp1 (full length; SH3 domain 535-592 mutated) / Hua2 (parent complex)
chain 1: MALEPIDYTTHSREIDAEYLKIVRGSDPDTTWLIISPNAKKEYEPESTGSSFHDFLQLFDETKVQYGLARVSPPGSDVEKIIIIGWCPDSAPLKTRASFAANFAAVANNLFKGYHVQVTARDEDDLDENELLMKISNAAGARYSIQTSSKQQGKASTPPVKKSFTPSKSPAPVSKKEPVKTPSPAPAAKISSRVNDNNDDDDWNEPELKERDFDQAPLKPNQSSYKPIGKIDLQKVIAEEKAKEDPRLVQKPTAAGSKIDPSSDIANLKNESKLKRDSEFNSFLGTTKPPSMTESSLKNDDDKVIKGFRNEKSPAQLWAERKAKQNSGNAETKAEAPKPEVPEDEPEGEPDVKDLKSKFEGLAASEKEEEEMENKFAPPPKKSEPTIISPKPFSKPQEPVKAEEAEQPKTDYKKIGNPLPGMHIEADNEEEPEENDDDWDDDEDEAAQPPLPSRNVASGAPVQKEEPEQEEIAPSLPSRNSIPAPKQEEAPEQAPEEEIEEEAEEAAPQLPSRSSAAPPPPPRRATPEKKPKENPWATAEYDYDAAEDNELTFVENDKIINIEFVDDDWWLGELEKDGSKGLFPSNYVSLGN
chain 2: MQQTKFGKMYLDHDSVVEYSEDEIVEADRITLGYKKRLSMIENQMRHLLEDFSLDVQQIEPILADLQKYYDAFLQLLQKRNKSLQCKRSTHQPVPSPMNSQTSTNAKVNLSGKLMKFQLNSVQKFDEENILRILQNKIEFEHYFQIDKGKKQKVLLLAVYQCLNGPTRLHKVLNIEGIIHNNSIRTILGKQVSSSKWTVFLYDVKLVLLAHRQDVPNLETSKMIVRYGDLFPCALYFKDHTAY

Variants of: B1
Assay: DHFR protein-fragment complementation in yeast (Abp1-DHFR F[1,2] x partner-DHFR F[3]), deep mutational scanning, second methotrexate selection vs reference; S. cerevisiae, DHFR-PCA selection in liquid with methotrexate at 30 C, two 72 h selections (the score uses the second); reference = the pre-selection culture

Variant	screen value
chain 1 MALEPIDYTTHSREIDAEYLKIVRGSDPDTTWLIISPNAKKEYEPESTGSSFHDFLQLFDETKVQYGLARVSPPGSDVEKIIIIGWCPDSAPLKTRASFAANFAAVANNLFKGYHVQVTARDEDDLDENELLMKISNAAGARYSIQTSSKQQGKASTPPVKKSFTPSKSPAPVSKKEPVKTPSPAPAAKISSRVNDNNDDDDWNEPELKERDFDQAPLKPNQSSYKPIGKIDLQKVIAEEKAKEDPRLVQKPTAAGSKIDPSSDIANLKNESKLKRDSEFNSFLGTTKPPSMTESSLKNDDDKVIKGFRNEKSPAQLWAERKAKQNSGNAETKAEAPKPEVPEDEPEGEPDVKDLKSKFEGLAASEKEEEEMENKFAPPPKKSEPTIISPKPFSKPQEPVKAEEAEQPKTDYKKIGNPLPGMHIEADNEEEPEENDDDWDDDEDEAAQPPLPSRNVASGAPVQKEEPEQEEIAPSLPSRNSIPAPKQEEAPEQAPEEEIEEEAEEAAPQLPSRSSAAPPPPPRRATPEKKPKENPWATAEYDYDAAEDNELTFVENDKIINIEFVDDDWWLGELEKDGSKGLFPSNYVSLCN [chain 1 G591C]	-0.973 DMS score: mean over two replicates of log2(f_test/f_ref + 0.5)/ln 2, minus the synonymous-codon median (not a log2 …
chain 1 MALEPIDYTTHSREIDAEYLKIVRGSDPDTTWLIISPNAKKEYEPESTGSSFHDFLQLFDETKVQYGLARVSPPGSDVEKIIIIGWCPDSAPLKTRASFAANFAAVANNLFKGYHVQVTARDEDDLDENELLMKISNAAGARYSIQTSSKQQGKASTPPVKKSFTPSKSPAPVSKKEPVKTPSPAPAAKISSRVNDNNDDDDWNEPELKERDFDQAPLKPNQSSYKPIGKIDLQKVIAEEKAKEDPRLVQKPTAAGSKIDPSSDIANLKNESKLKRDSEFNSFLGTTKPPSMTESSLKNDDDKVIKGFRNEKSPAQLWAERKAKQNSGNAETKAEAPKPEVPEDEPEGEPDVKDLKSKFEGLAASEKEEEEMENKFAPPPKKSEPTIISPKPFSKPQEPVKAEEAEQPKTDYKKIGNPLPGMHIEADNEEEPEENDDDWDDDEDEAAQPPLPSRNVASGAPVQKEEPEQEEIAPSLPSRNSIPAPKQEEAPEQAPEEEIEEEAEEAAPQLPSRSSAAPPPPPRRATPEKKPKENPWATAEYDYDAAEDNELTFVENDKIINIEFVDDDWWLGELEKDGSKGLFPSAYVSLGN [chain 1 N586A]	1.82 DMS score: mean over two replicates of log2(f_test/f_ref + 0.5)/ln 2, minus the synonymous-codon median (not a log2 …

The next lines start with the values.

screen value	Variant
-2.1 DMS score: mean over two replicates of log2(f_test/f_ref + 0.5)/ln 2, minus the synonymous-codon median (not a log2 …	chain 1 MALEPIDYTTHSREIDAEYLKIVRGSDPDTTWLIISPNAKKEYEPESTGSSFHDFLQLFDETKVQYGLARVSPPGSDVEKIIIIGWCPDSAPLKTRASFAANFAAVANNLFKGYHVQVTARDEDDLDENELLMKISNAAGARYSIQTSSKQQGKASTPPVKKSFTPSKSPAPVSKKEPVKTPSPAPAAKISSRVNDNNDDDDWNEPELKERDFDQAPLKPNQSSYKPIGKIDLQKVIAEEKAKEDPRLVQKPTAAGSKIDPSSDIANLKNESKLKRDSEFNSFLGTTKPPSMTESSLKNDDDKVIKGFRNEKSPAQLWAERKAKQNSGNAETKAEAPKPEVPEDEPEGEPDVKDLKSKFEGLAASEKEEEEMENKFAPPPKKSEPTIISPKPFSKPQEPVKAEEAEQPKTDYKKIGNPLPGMHIEADNEEEPEENDDDWDDDEDEAAQPPLPSRNVASGAPVQKEEPEQEEIAPSLPSRNSIPAPKQEEAPEQAPEEEIEEEAEEAAPQLPSRSSAAPPPPPRRATPEKKPKENPWATAEYDYDAASDNELTFVENDKIINIEFVDDDWWLGELEKDGSKGLFPSNYVSLGN [chain 1 E547S]
0.618 DMS score: mean over two replicates of log2(f_test/f_ref + 0.5)/ln 2, minus the synonymous-codon median (not a log2 …	chain 1 MALEPIDYTTHSREIDAEYLKIVRGSDPDTTWLIISPNAKKEYEPESTGSSFHDFLQLFDETKVQYGLARVSPPGSDVEKIIIIGWCPDSAPLKTRASFAANFAAVANNLFKGYHVQVTARDEDDLDENELLMKISNAAGARYSIQTSSKQQGKASTPPVKKSFTPSKSPAPVSKKEPVKTPSPAPAAKISSRVNDNNDDDDWNEPELKERDFDQAPLKPNQSSYKPIGKIDLQKVIAEEKAKEDPRLVQKPTAAGSKIDPSSDIANLKNESKLKRDSEFNSFLGTTKPPSMTESSLKNDDDKVIKGFRNEKSPAQLWAERKAKQNSGNAETKAEAPKPEVPEDEPEGEPDVKDLKSKFEGLAASEKEEEEMENKFAPPPKKSEPTIISPKPFSKPQEPVKAEEAEQPKTDYKKIGNPLPGMHIEADNEEEPEENDDDWDDDEDEAAQPPLPSRNVASGAPVQKEEPEQEEIAPSLPSRNSIPAPKQEEAPEQAPEEEIEEEAEEAAPQLPSRSSAAPPPPPRRATPEKKPKENPWATAEYDYDAAEDNELTLVENDKIINIEFVDDDWWLGELEKDGSKGLFPSNYVSLGN [chain 1 F553L]
0.602 DMS score: mean over two replicates of log2(f_test/f_ref + 0.5)/ln 2, minus the synonymous-codon median (not a log2 …	chain 1 MALEPIDYTTHSREIDAEYLKIVRGSDPDTTWLIISPNAKKEYEPESTGSSFHDFLQLFDETKVQYGLARVSPPGSDVEKIIIIGWCPDSAPLKTRASFAANFAAVANNLFKGYHVQVTARDEDDLDENELLMKISNAAGARYSIQTSSKQQGKASTPPVKKSFTPSKSPAPVSKKEPVKTPSPAPAAKISSRVNDNNDDDDWNEPELKERDFDQAPLKPNQSSYKPIGKIDLQKVIAEEKAKEDPRLVQKPTAAGSKIDPSSDIANLKNESKLKRDSEFNSFLGTTKPPSMTESSLKNDDDKVIKGFRNEKSPAQLWAERKAKQNSGNAETKAEAPKPEVPEDEPEGEPDVKDLKSKFEGLAASEKEEEEMENKFAPPPKKSEPTIISPKPFSKPQEPVKAEEAEQPKTDYKKIGNPLPGMHIEADNEEEPEENDDDWDDDEDEAAQPPLPSRNVASGAPVQKEEPEQEEIAPSLPSRNSIPAPKQEEAPEQAPEEEIEEEAEEAAPQLPSRSSAAPPPPPRRATPEKKPKENPWATAEYDYDAAEDNELTFEENDKIINIEFVDDDWWLGELEKDGSKGLFPSNYVSLGN [chain 1 V554E]
